Experimental data taken from patent US20020094544A1.

Key:
[1] = target: Human opioid receptor subtype µ (human) (UniProt P35372); assay: cell-based or functional assay
[2] = target: Human opioid receptor subtype δ2 (human) (UniProt P41143); assay: cell-based or functional assay
Human opioid receptor subtype δ2 (human), sequence (P41143 whole entry, stated change not applied): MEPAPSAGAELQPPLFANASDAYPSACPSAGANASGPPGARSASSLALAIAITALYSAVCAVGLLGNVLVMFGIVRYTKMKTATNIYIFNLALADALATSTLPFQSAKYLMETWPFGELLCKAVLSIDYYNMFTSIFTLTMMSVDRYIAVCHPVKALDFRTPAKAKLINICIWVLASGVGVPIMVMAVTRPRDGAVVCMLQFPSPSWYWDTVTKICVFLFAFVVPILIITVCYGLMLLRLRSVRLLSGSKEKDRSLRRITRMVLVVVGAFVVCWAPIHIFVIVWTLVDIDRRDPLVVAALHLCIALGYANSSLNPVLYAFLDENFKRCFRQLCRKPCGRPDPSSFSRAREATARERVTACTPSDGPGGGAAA

Human opioid receptor subtype µ (human), sequence (P35372 whole entry): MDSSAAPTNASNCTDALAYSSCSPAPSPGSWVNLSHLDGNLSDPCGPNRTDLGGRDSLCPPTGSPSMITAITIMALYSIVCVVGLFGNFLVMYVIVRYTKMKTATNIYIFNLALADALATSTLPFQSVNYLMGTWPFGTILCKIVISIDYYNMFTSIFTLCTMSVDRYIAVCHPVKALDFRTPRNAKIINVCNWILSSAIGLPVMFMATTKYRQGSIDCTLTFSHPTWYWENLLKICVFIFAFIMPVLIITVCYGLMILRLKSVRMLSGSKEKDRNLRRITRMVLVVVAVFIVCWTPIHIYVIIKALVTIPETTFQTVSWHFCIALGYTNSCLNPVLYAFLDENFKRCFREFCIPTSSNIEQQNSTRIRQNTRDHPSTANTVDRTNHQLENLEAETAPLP

dynorphin A (from UniProt P01213 207-223) (peptide)
increase in basal level fluorescence (binding of BODIPY-FL-GTPγS to receptor arrays) [1]: 2.5 fold | increase in basal level fluorescence (binding of BODIPY-FL-GTPγS to receptor arrays) [2]: 10 fold
